Measurements published in the RNAGym collection of RNA variant scans (doi:10.7554/elife.90254).

B1: OR4K15 (parent)
chain: GUUAACGGUCAUAGGCCAUGGAAACUAGGAGCACCAUUUCGCUGCCAGUGAAGAAAUGAACAAAGAAAAUCUGGGCCAGGCAGGCAUCAAAAGAAAUAGUCUUGCGCUCAACCAGAAAGUCUGUAAUCAUUUUAAGGGUA

Variants of: B1
Test: self-cleavage, relative activity (ratio to wild type); higher = more cleavage; in vitro, sequencing; the parent is a self-cleaving ribozyme

With GUUAACGGUCAUAGGCCAUGGAAACUAGGCGCACCAUUUCGCUGCCAGUGAAGAAAUGAACAAAGAAAAUCUGGGCCAGGCAGGCAUCAAAAGAAAUAGUCUUGCGCUCAACCAGAAAGUCUGUAAUCAUUUUAAGGGUG as the variant, how does the self-cleavage read?
Its self-cleavage is 1.69.

With GUUAACGGUCAUAGGCCAUGGAAACUAGUAGCACCAUUUCGCUGCCAGUGAAGAAAUGAACAAAGAAAAUCUGGGCCAGGCAGGCAUCAAAAGAAAUAGUCUUGCGCUCAACCAGAAAGUCUGUAAUCAUUUUAAGGGUA as the variant, how does the self-cleavage read?
Its self-cleavage is 1.83.

For GUUAACGGUCAUAGGCCAUGGAAACUAGCAGCACCAUUUCGCUGCCAGUGAAGAAAUGAACAAAGAAAAUCUGGGCCAGGCAGGCAUCAAAAGAAAUAGUCUUGCGCUCAACCAGAAAGUCUGUAAUCAUUUUAAGGGUA, which self-cleavage is on record?
The self-cleavage was 1.78.

Which self-cleavage does the source give for GUUAACGGUCAUAGGCCAUGGAAACUAGUAGCGCCAUUUCGCUGCCAGUGAAGAAAUGAACAAAGAAAAUCUGGGCCAGGCAGGCAUCAAAAGAAAUAGUCUUGCGCUCAACCAGAAAGUCUGUAAUCAUUUUAAGGGUA here?
Its self-cleavage is 1.58.

For GUUAACGGUCAUAGGCCAUGGAAACUAGGCGCACCAUUUCGCUGCCAGUGAAGAAAUGAACAAUGAAAAUCUGGGCCAGGCAGGCAUCAAAAGAAAUAGUCUUGCGCUCAACCAGAAAGUCUGUAAUCAUUUUAAGGGUA, which self-cleavage is on record?
Its self-cleavage is 0.92.

For GUUAACGGUCAUAGGCCAUGGAAACUAGUAGCACCAUUUCGCUGCCAGUGAAGAAAUGAACAAAGAAAAUCUGGGCCAGGCAGGCAUCAAAAGAAAUAGUCUUGCGCUCAGCCAGAAAGUCUGUAAUCAUUUUAAGGGUA, which self-cleavage is on record?
The self-cleavage was 0.05.

With GUUAACGGUCAUAGGCCAUGGAAACUAGAAGCACCAUUUCGCUGCCAGUGAAGAAAUGAACAAAGAAAAUCUGGGCCAGGCAGGCAUCAAAAGAAAUAGUCUUGCGCCCAACCAGAAAGUCUGUAAUCAUUUUAAGGGUA as the variant, how does the self-cleavage read?
Its self-cleavage is 0.03.

With GUUAACGGUCAUAGGCCAUGGAAACUAGUAGCACCAUUUCGCUGCCAGUGAAGAAAUGAACAAAGAAAAUCUGGGCCAGGCAGGCAUCAAAAGAAAUAGUCUUGCGCUCAACCAGAAGGUCUGUAAUCAUUUUAAGGGUA as the variant, how does the self-cleavage read?
Its self-cleavage is 0.78.

For GUUAACGGUCAUAGGCCAUGGAAACUAGGCGCACCAUUUCGCUGCCAGUGAAGAGAUGAACAAAGAAAAUCUGGGCCAGGCAGGCAUCAAAAGAAAUAGUCUUGCGCUCAACCAGAAAGUCUGUAAUCAUUUUAAGGGUA, which self-cleavage is on record?
Its self-cleavage is 1.44.

With GUUAACGGUCAUAGGCCAUGGAAACUAGAAGCACCAUUUAGCUGCCAGUGAAGAAAUGAACAAAGAAAAUCUGGGCCAGGCAGGCAUCAAAAGAAAUAGUCUUGCGCUCAACCAGAAAGUCUGUAAUCAUUUUAAGGGUA as the variant, how does the self-cleavage read?
The self-cleavage was 1.82.

With GUUAACGGUCAUAGGCCAUGGAAACUAGGCGCACCAUUUCGCUGCCAGUGAAGAAAUGAACAAAGAAAAUCUGGCCCAGGCAGGCAUCAAAAGAAAUAGUCUUGCGCUCAACCAGAAAGUCUGUAAUCAUUUUAAGGGUA as the variant, how does the self-cleavage read?
The self-cleavage was 0.12.

Which self-cleavage does the source give for GUUAACGGUCAUAGGCCAUGGAAACUAGUAGCACCAUUUCGCUGCCAGUGAAGAAAUGAACAAAGAAAAUCUGGGCCAGGCAGGCAUUAAAAGAAAUAGUCUUGCGCUCAACCAGAAAGUCUGUAAUCAUUUUAAGGGUA here?
The self-cleavage was 2.55.

With GUUAACGGUCAUAGGCCAUGGAAACUAGUAGCACCAUUUCGCUGCCAGUGAAGAAAUGAACAAAGAAAAUCUGGGCCUGGCAGGCAUCAAAAGAAAUAGUCUUGCGCUCAACCAGAAAGUCUGUAAUCAUUUUAAGGGUA as the variant, how does the self-cleavage read?
Its self-cleavage is 0.35.

With GUUAACGGUCAUAGGCCAUGGAAACUAGUAGCACCAUUUCGCUGCCAGUGAAGAAAUGAACAAAGAAAAUCUGGGCCGGGCAGGCAUCAAAAGAAAUAGUCUUGCGCUCAACCAGAAAGUCUGUAAUCAUUUUAAGGGUA as the variant, how does the self-cleavage read?
Its self-cleavage is 0.24.

With GUUAACGGUCAUAGGCCAUGGAAACUAGCAGCACCAUUUCGCUGCCAGUGAAGAAAUGAACAAAGAAAAUCUGGGCCAGGCAGGCAUCAAAAGAAAUAGCCUUGCGCUCAACCAGAAAGUCUGUAAUCAUUUUAAGGGUA as the variant, how does the self-cleavage read?
Its self-cleavage is 2.39.

For GUUAACGGUCAUAGGCCAUGGAAACUAGAAGCACCAUUUCGCUGCCAGUGAAGAAAUGAACAAAGAAAAUCUGGGCCAGGCAGGCAUCAAAAGAAAUAGUCUUGCGCUCAACCAGAAAGUCCGUAAUCAUUUUAAGGGUA, which self-cleavage is on record?
The self-cleavage was 1.08.

Which self-cleavage does the source give for GUUAACGGUCAUAGGCCAUGGAAACUAGAAGCACCAUUUCGCUGCCAGUGAAGAAAUGAACAAAGAAAAUCUGGGCCAGGCAGGCAUCAAAAGAAAUAGUCUUGCGCUCAACCAGAAAGUCUGUAAUCACUUUAAGGGUA here?
Its self-cleavage is 1.7.

With GUUAACGGUCAUAGGCCAUGGAAACUAGCAGCACCACUUCGCUGCCAGUGAAGAAAUGAACAAAGAAAAUCUGGGCCAGGCAGGCAUCAAAAGAAAUAGUCUUGCGCUCAACCAGAAAGUCUGUAAUCAUUUUAAGGGUA as the variant, how does the self-cleavage read?
The self-cleavage was 1.25.

Which self-cleavage does the source give for GUUAACGGUCAUAGGCCAUGGAAACUAGGCGCACCAUUUCGCUGCCAGUGAAGAAAUGAACAAAGAAAAUCUGGGCCAGGCAGGCAUCGAAAGAAAUAGUCUUGCGCUCAACCAGAAAGUCUGUAAUCAUUUUAAGGGUA here?
Its self-cleavage is 1.34.

For GUUAACGGUCAUAGGCCAUGGAAACUAGGCGCACCGUUUCGCUGCCAGUGAAGAAAUGAACAAAGAAAAUCUGGGCCAGGCAGGCAUCAAAAGAAAUAGUCUUGCGCUCAACCAGAAAGUCUGUAAUCAUUUUAAGGGUA, which self-cleavage is on record?
Its self-cleavage is 2.26.

Which self-cleavage does the source give for GUUAACGGUCAUAGGCCAUGGAAACUAGUAGCACCAUUUCGCUGCCAGUGAAGAAAUGAACGAAGAAAAUCUGGGCCAGGCAGGCAUCAAAAGAAAUAGUCUUGCGCUCAACCAGAAAGUCUGUAAUCAUUUUAAGGGUA here?
The self-cleavage was 1.65.
